# T1: NKG2D-Fc蛋白 (UniProt P26718 78-216, limits assumed)
# T1 construct: Captured on a CM5 chip through anti-human Fc antibody for SPR; not shown: Fc part, captured by anti-human Fc antibody
# T1 sequence (looked up): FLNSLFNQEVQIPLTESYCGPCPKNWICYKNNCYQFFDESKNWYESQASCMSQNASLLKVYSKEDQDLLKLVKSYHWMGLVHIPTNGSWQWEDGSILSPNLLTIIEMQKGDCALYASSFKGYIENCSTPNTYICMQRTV
# T2: BCMA-Fc蛋白 (human, UniProt Q02223 1-54)
# T2 construct: Captured on a CM5 chip through anti-human Fc antibody for SPR; also called BCMA抗原; not shown: Fc part, captured by anti-human Fc antibody
# T2 sequence (looked up): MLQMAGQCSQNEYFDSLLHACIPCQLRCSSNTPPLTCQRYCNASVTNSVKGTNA
# B1: 双特异性抗体2A9-MICA (anti-human BCMA scFv 2A9 fused to human MICA extracellular regions 1-3) (bispecific antibody)
# chain: MAEVQLQQSGAELVKPGASVKLSCTASGFNIKDTYMHWVKQRPEQGLEWIGRIDPANGNTKYDPKFQGKATITADTSSNTAYLQLSSLTSEDTAVYYCARWVYWGQGTTLTVSTGGGGSDVVMTQSPSSMYASLGERVTITCKASQDINSYLSWFQQKPGKSPKTLIYRANRLVDGVPSRFSGSGSGQDYSLTISSLEYEDMGIYYCLQYDEFPYTFGGGTKLEIKRGSGGGGSEPHSLRYNLTVLSWDGSVQSGFLAEVHLDGQPFLRYDRQKCRAKPQGQWAEDVLGNKTWDRETRDLTGNGKDLRMTLAHIKDQKEGLHSLQEIRVCEIHEDNSTRSSQHFYYDGELFLSQNLETEEWTVPQSSRAQTLAMNVRNFLKEDAMKTKTHYHAMHADCLQELRRYLESGVVLRRTVPPMVNVTRSEASEGNITVTCRASSFYPRNIILTWRQDGVSLSHDTQQWGDVLPDGNGTYQTWVATRICRGEEQRFTCYMEHSGNHSTHPVPSGKVLVLQSHW
# notes: also called 抗体融合蛋白2A9-MICA; rG7S-MICA
# B2: 抗人BCMA单链抗体2A9 (scFv)
# scFv: ASMAEVQLQQSGAELVKPGASVKLSCTASGFNIKDTYMHWVKQRPEQGLEWIGRIDPANGNTKYDPKFQGKATITADTSSNTAYLQLSSLTSEDTAVYYCARWVYWGQGTTLTVSTGGGGSDVVMTQSPSSMYASLGERVTITCKASQDINSYLSWFQQKPGKSPKTLIYRANRLVDGVPSRFSGSGSGQDYSLTISSLEYEDMGIYYCLQYDEFPYTFGGGTKLEIKR
# notes: Parental scFv from phage display; also called rG7S
# Key:
# [1] = target: T1, NKG2D-Fc蛋白; assay: SPR, Biacore X100, NKG2D-Fc captured by anti-human Fc on CM5, 2A9-MICA as analyte
# [2] = target: T2, BCMA-Fc蛋白; assay: SPR, Biacore X100, BCMA-Fc captured by anti-human Fc on CM5, 2A9-MICA as analyte
# [3] = target: T2, BCMA-Fc蛋白; assay: SPR, Biacore X100, BCMA-Fc captured by anti-human Fc on CM5, 2A9 as analyte
Binder,Kd [1],Kd [2],Kd [3]
B1,3470 nM,76 nM,–
B2,–,–,34.6 nM

# Source: patent CN111333732A (UNIV CHINA PHARMA, dated 2020)
